Assay [1] addresses T1, human BTN3A1 expressed on HEK293 cells (human, UniProt O00481 30-513).
T1 construct: whole, on cells; also called BTN3A1-expressing HEK293 cells; human BTN3A1-overexpressing cells
Nature of the assay: flow cytometry, HEK293 cells (endogenous BTN3A knocked out) overexpressing human BTN3A1.

The target of assay [2] is T1, human BTN3A1 expressed on HEK293 cells. The assay can be described thus: flow cytometry, HEK293 cells overexpressing human BTN3A1.
Assay [3] concerns the target T2, human BTN3A1 recombinant protein with his tag (h-BTN3A1-his) (human, UniProt O00481 30-254).
T2 construct: range 30-254; Bought from Kactus; also called human BTN3A1 antigen protein (Kactus Biosystems, BTN-HM1A1); not shown: his tag
The assay can be described thus: ELISA, plate coated with h-BTN3A1-his, antibody titrated.

Assay [4] deals with T2, human BTN3A1 recombinant protein with …. The assay can be described thus: SPR Biacore 8K, antibody captured on Protein A chip, BTN3A1 as analyte, 1:1 Langmuir fit.
The target in assay [5] is T3, human BTN3A2 overexpressed on HEK293 cells (human, UniProt P78410 30-334).
T3 construct: whole, on cells; HEK293 cells with endogenous BTN3A knocked out; also called human BTN3A2-overexpressing cells
The assay can be described thus: flow cytometry, HEK293 cells (endogenous BTN3A knocked out) overexpressing human BTN3A2.

Assay [6] addresses T1, human BTN3A1 expressed on HEK293 cells. Nature of the assay: flow cytometry, HEK293 cells (endogenous BTN3A knocked out) overexpressing human BTN3A1. This is another data set of the same source.
Assay [7] deals with T4, human BTN3A3 overexpressed on HEK293 cells (human, UniProt O00478 30-584).
T4 construct: whole, on cells; HEK293 cells with endogenous BTN3A knocked out; also called human BTN3A3-overexpressing cells
The assay can be described thus: flow cytometry, HEK293 cells (endogenous BTN3A knocked out) overexpressing human BTN3A3.

In assay [8] the target is T2, human BTN3A1 recombinant protein with …. Nature of the assay: SPR Biacore 8K, antibody captured on Protein A chip, BTN3A1 as analyte, 1:1 Langmuir fit. The source holds these as a separate data set.

Where a chain is given by its changes, count along the chain named. Names may count otherwise. Read-outs that look alike come from different tables or passages of the source.

T1 sequence (O00481 30-513): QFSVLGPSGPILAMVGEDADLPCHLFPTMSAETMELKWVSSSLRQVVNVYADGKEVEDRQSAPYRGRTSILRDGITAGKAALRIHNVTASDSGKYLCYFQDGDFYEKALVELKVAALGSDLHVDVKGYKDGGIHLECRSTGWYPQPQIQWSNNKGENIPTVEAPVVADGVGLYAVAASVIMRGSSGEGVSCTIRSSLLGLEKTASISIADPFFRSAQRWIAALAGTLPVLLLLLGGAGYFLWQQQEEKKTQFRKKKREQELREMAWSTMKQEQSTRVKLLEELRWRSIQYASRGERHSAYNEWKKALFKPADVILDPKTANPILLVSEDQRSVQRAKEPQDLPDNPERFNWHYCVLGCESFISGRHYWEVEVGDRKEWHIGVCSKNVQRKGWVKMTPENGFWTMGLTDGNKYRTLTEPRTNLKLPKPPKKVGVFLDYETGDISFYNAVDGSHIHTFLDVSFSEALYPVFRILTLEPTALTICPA
T2 sequence (O00481 30-254 limits assumed): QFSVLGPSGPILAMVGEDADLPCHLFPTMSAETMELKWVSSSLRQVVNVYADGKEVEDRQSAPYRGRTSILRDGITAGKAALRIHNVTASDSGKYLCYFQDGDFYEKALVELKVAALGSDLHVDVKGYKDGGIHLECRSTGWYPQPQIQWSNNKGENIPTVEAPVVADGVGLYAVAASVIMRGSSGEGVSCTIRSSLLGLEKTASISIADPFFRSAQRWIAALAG
T3 sequence (P78410 30-334): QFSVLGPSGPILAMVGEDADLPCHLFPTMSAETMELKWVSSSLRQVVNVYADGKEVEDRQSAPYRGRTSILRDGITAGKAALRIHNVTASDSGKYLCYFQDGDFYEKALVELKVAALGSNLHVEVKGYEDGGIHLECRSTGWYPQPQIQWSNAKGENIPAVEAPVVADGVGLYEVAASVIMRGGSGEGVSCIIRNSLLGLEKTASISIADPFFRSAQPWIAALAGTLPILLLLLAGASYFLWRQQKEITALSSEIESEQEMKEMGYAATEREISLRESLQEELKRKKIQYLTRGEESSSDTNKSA
T4 sequence (O00478 30-584): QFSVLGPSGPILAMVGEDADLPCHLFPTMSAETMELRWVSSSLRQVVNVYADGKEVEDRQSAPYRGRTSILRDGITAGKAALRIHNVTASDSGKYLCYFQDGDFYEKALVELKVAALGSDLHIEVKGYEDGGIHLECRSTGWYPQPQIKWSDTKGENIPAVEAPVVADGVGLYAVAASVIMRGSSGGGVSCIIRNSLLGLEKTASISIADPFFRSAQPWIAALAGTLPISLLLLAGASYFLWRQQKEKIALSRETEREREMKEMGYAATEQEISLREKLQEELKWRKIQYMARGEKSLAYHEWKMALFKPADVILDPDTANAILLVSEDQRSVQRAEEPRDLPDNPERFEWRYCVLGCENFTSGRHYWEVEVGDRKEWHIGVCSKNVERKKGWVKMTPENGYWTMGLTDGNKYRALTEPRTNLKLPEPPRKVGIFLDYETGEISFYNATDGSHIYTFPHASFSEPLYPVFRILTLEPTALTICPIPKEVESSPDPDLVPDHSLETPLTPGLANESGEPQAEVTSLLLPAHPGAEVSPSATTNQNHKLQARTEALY

B1: 17G4 (a human-rabbit chimeric antibody, parent) (antibody, human IgG1, kappa, V domains shown)
VH: QSLEESGGRLVTPGTPLTLTCTASGFSLNDYYITWVRQAPGKGLEWIGVIYGSSNTVYASWAKGRFTISKTSTMVDLRITSPTTEDTATYFCARGYLASSADIWGPGTLVTVSL
VL: QVLTQTPSPVSAAVGGTVTINCQSSQSVYNNNRLAWYQQKPGQPPKLLIYDASTLASGVPSRFKGSGSGTDFTLTISDLECADAATYYCQTYYSGYIWAFGGGTEVVVKR
notes: Rabbit variable regions on the human IgG1 constant region with L234F/L235E/P331S (Eu numbering) and human Ckappa
Molecule B1 returned an EC50 in assay [1] of 15.4 nM. Besides, in assay [2], the EC50 is 17.4 nM and the “Max FACS mean fluorescence intensity (MFI)” value came out at 98000 MFI. The concentration for a half-maximal effect (EC50) in assay [3] came out at 0.0228 nM. Further, in assay [4], the dissociation constant Kd was determined as 0.228 nM, the dissociation rate constant (koff) was 0.000182 s⁻¹ and the on-rate (kon) was 800000 M⁻¹ s⁻¹.

B2: 17G4-H5L3 (antibody, human IgG1, kappa, V domains shown)
VH: EQQLVESGGGLVQPGGSLRLSCAASGFSLNDYYITWVRQAPGKGLEWIGVIYGSSNTVYASWAKGRFTISKTSTMVYLQMNSLRAEDTAVYFCARGYLASSADIWGQGTLVTVSS
VL: DQQLTQSPSSLSASVGDRVTITCQSSQSVYNNNRLAWYQQKPGKPPKLLIYDASTLASGVPSRFSGSGSGTDFTLTISSLQPEDVATYYCQTYYSGYIWAFGGGTKVEIKR
notes: Humanized; human IgG1 constant region with L234F/L235E/P331S and human Ckappa; also called 17G4's humanized antibody
With B2, in assay [2], the EC50 is 19.8 nM and the “Max FACS mean fluorescence intensity (MFI)” value was determined as 89700 MFI.

B3: 20A3-H2L2 (antibody, human IgG1, kappa, V domains shown)
VH: EVQLVESGGGLVQPGGSLRLSCAASGFTINNYYMNWVRQAPGKGLEWVSIIYGSDNTYYASWAKGRFTISKDNSKNTVYLQMNSLRAEDTAVYYCVRNLDYSSAYFHIWGQGTLVTVSS
VL: B2 VL with Q2I, S25A, D52E, T55K, T92G, Y97F, W99Y, A100P
notes: Humanized; human IgG1 constant region with L234F/L235E/P331S and human Ckappa; also called 20A3's humanized antibody
Consider B3, for which the concentration for a half-maximal effect (EC50) in assay [5] amounted to 6.76 nM. Further, in assay [2], the EC50 came to 10.2 nM and the “Max FACS mean fluorescence intensity (MFI)” value came to 91200 MFI. Also, the concentration for a half-maximal effect (EC50) in assay [6] came to 2.98 nM. The molecule also yielded a concentration giving a half-maximal response (EC50) in assay [7] of 5.12 nM. Also, in assay [8], the equilibrium dissociation constant (Kd) came to 0.174 nM, the koff amounted to 0.000172 s⁻¹ and the kon was 985000 M⁻¹ s⁻¹.

B4: 20A3 (a human-rabbit chimeric antibody, parent) (antibody, human IgG1, kappa, V domains shown)
VH: QSVEESGGRLVTPGTPLTLTCTASGFTINNYYMNWVRQAPGKGLEWIGIIYGSDNTYYASWAKGRFTISKTSTTVDLIMTSPTTEDTATYFCVRNLDYSSAYFHIWGPGTLVTVSS
VL: QVLTQTPSPVSAAVGGTVSISCQASQSVYNNNRLAWYQQKPGQPPNLLIYEASKLASGVPSRFKGSGSGTQFTLIISEVQCEDAATYYCQGYYSGFIYPFGGGTEVVVKR
notes: as for B1
In assay [1], B4 came in with a concentration giving a half-maximal response (EC50) of 8.2 nM. In addition, in assay [2], the concentration giving a half-maximal response (EC50) stood at 11.7 nM and the “Max FACS mean fluorescence intensity (MFI)” value was 95800 MFI. For the same molecule, in assay [3], the EC50 was 0.0196 nM. In assay [4], the Kd was determined as 0.174 nM, the koff came out at 0.000172 s⁻¹ and the kon is 985000 M⁻¹ s⁻¹.

(Values after EP4755916A1 (Jiangsu Hengrui Pharmaceuticals Co., Ltd., dated 2026).)
